Legend:
Experiment in all cases: TAP pull-down interactome analysis (LC-MS/MS)
Conditions in all cases: MCF-7 cells; read off a plot
PSMD2 = target: PSMD2
RPN2 = target: RPN2
TCP1 = target: TCP1
SERPINH1 = target: SERPINH1
UBA1 = target: UBA1
PDIA4 = target: PDIA4
PSMB6 = target: PSMB6
GANAB = target: GANAB
HSPA9 = target: HSPA9
HSPA2 = target: HSPA2
ERP29 = target: ERP29
CCT6A = target: CCT6A
CCT5 = target: CCT5
HSP90AB1 = target: HSP90AB1
CCT2 = target: CCT2
CCT3 = target: CCT3
UCHL1 = target: UCHL1

other: log2 relative change (PSMD2) [log2]	other: log2 relative change (RPN2) [log2]	other: log2 relative change (TCP1) [log2]	other: log2 relative change (SERPINH1) [log2]	other: log2 relative change (UBA1) [log2]	other: log2 relative change (PDIA4) [log2]	other: log2 relative change (PSMB6) [log2]	other: log2 relative change (GANAB) [log2]	other: log2 relative change (HSPA9) [log2]	other: log2 relative change (HSPA2) [log2]	other: log2 relative change (ERP29) [log2]	other: log2 relative change (CCT6A) [log2]	other: log2 relative change (CCT5) [log2]	other: log2 relative change (HSP90AB1) [log2]	other: log2 relative change (CCT2) [log2]	other: log2 relative change (CCT3) [log2]	other: log2 relative change (UCHL1) [log2]	Substance
-2	-1.9	-1.7	-0.85	-0.2	-0.8	-0.9	-0.47	-0.32	0.7	-2.3	-1.6	-1.5	-1.2	-0.82			TAP–Bag-1S (from UniProt Q99933-4) I103K
-2.1		-0.52	-1.3	-2	-0.7	-2.3	-1.8	-0.32				2	-1.9	-1.6	-1.4		TAP–Bag-1S (from UniProt Q99933-4) R161D
	-2.1	-1.9	-1.1	-0.47	-1.8	-2.3	-0.52	-1.7			-2	-0.35	-1.7	-1.5	-1.2		TAP–Bag-1S (from UniProt Q99933-4) R162E
-1.1	-1.5	0.5	-0.12	0.37	-0.65	-0.85	-0.15	-0.07	0.77	1.5		-0.45	-0.65	-0.05	1	-0.77	TAP–Bag-1S (from UniProt Q99933-4) R193D
